We go through 2 substances from paper doi:10.1101/2025.04.22.649924.

This assay addresses ectodomain of APP^695. Nature of the assay: SPR.

“SORLA^N1358S ectodomain (soluble mutant SORLA ectodomain, hexa-His-tagged) (from UniProt Q92673 82-2137) (domain or fragment)”: the SPR sensorgram peak (response units) came out at 1650 RU.

In turn, “SORLA^WT ectodomain (soluble wildtype SORLA ectodomain, hexa-His-tagged) (from UniProt Q92673 82-2137) (domain or fragment)” gave an SPR sensorgram peak (response units) of 1750 RU.
